By EC50 is commonly meant the concentration giving half of the maximal effect. Read a high EC50 as weaker potency.

The record followed here is US20240350653A1 (JOINT STOCK COMPANY GENERIUM, published 2024).

Numbering of substitutions follows the chain as printed.

In assay [1] the target is mouse insulin receptor (mInsR, R&D Systems, Inc., Cat. No. 7544-MR) (mouse) (UniProt P15208). The experiment in a line: ELISA on mouse insulin receptor. Background: An ELISA detects its analyte on a solid surface through an enzyme-linked reagent.
Assay [2] addresses Human Insulin Receptor protein fragment (Abcam cat #ab200510) (human) (UniProt P06213). The experiment in a line: ELISA on human insulin receptor fragment.
Assay [3] shares this target. The experiment in a line: ELISA on human insulin receptor fragment, relative to 83-14 mAb.
Assay [4] deals with T1, mouse insulin receptor (mInsR, R&D Systems, Inc., Cat. No. 7544-MR) (mouse, UniProt P15208 28-946, limits assumed).
T1 construct: extracellular domain; Bought protein; also called extracellular domain of the mouse insulin receptor
The experiment in a line: ELISA on mouse insulin receptor.

Assay [5] addresses T2, Human Insulin Receptor protein fragment (Abcam cat #ab200510) (human, UniProt P06213-2 28-944, limits assumed).
T2 construct: domain: extracellular domain of the alpha subunit; Bought fragment; also called HIR; extracellular domain of the alpha subunit of the human insulin receptor
Nature of the assay: ELISA on human insulin receptor fragment.

Assay [6] deals with T2, Human Insulin Receptor protein fragment …. Nature of the assay: ELISA on human insulin receptor fragment, relative to 83-14 mAb.

As to “INSR/Insulin Receptor alpha Antibody 83-14 (Life technologies, cat#AHR0221)”, the results for the EC50 in assay [1] and in assay [2] were greater than 0.8 µg/mL and 0.0321 µg/mL, respectively. Moreover, the Receptor binding from antibody 83-14 mAb, % in assay [3] was 102%.
Regarding “Mouse Anti-Human Insulin Receptor Clone 83-14 mAb (Cell sciences, cat# MAI1) (antibody)”, the figures for the EC50 in assay [1] and in assay [2] were greater than 0.8 µg/mL and 0.0331 µg/mL, respectively. The molecule further showed a Receptor binding from antibody 83-14 mAb, % in assay [3] of 100%.

B1: HIR-FAB-IDS (SEQ ID NO: 2 and SEQ ID NO: 4) (Fab)
light: DIQMTQSPSSLSASLGERVSLTCRASQDIGGNLYWLQQGPDGTIKRLIYATSSLDSGVPKRFSGSRSGSDYSLTISSLESEDFVDYYCLQYSSSPWTFGGGTKMEIKRTVAAPSVFIFPPSDEQLKSGTASVVCLLNNFYPREAKVQWKVDNALQSGNSQESVTEQDSKDSTYSLSSTLTLSKADYEKHKVYACEVTHQGLSSPVTKSFNRGEC
heavy: QVQLQQSGPELVKPGALVKISCKASGYTFTNYDIHWVKQRPGQGLEWIGWIYPGDGSTKYNEKFKGKATLTADKSSSTAYMHLSSLTSEKSAVYFCAREWAYWGQGTLVTVSAASTKGPSVFPLAPSSKSTSGGTAALGCLVKDYFPEPVTVSWNSGALTSGVHTFPAVLQSSGLYSLSSVVTVPSSSLGTQTYICNVNHKPSNTKVDKKVEPKSCDKTHLSSSETQANSTTDALNVLLIIVDDLRPSLGCYGDKLVRSPNIDQLASHSLLFQNAFAQQAVCAPSRVSFLTGRRPDTTRLYDFNSYWRVHAGNFSTIPQYFKENGYVTMSVGKVFHPGISSNHTDDSPYSWSFPPYHPSSEKYENTKTCRGPDGELHANLLCPVDVLDVPEGTLPDKQSTEQAIQLLEKMKTSASPFFLAVGYHKPHIPFRYPKEFQKLYPLENITLAPDPEVPDGLPPVAYNPWMDIRQREDVQALNISVPYGPIPVDFQRKIRQSYFASVSYLDTQVGRLLSALDDLQLANSTIIAFTSDHGWALGEHGEWAKYSNFDVATHVPLIFYVPGRTASLPEAGEKLFPYLDPFDSASQLMEPGRQSMDLVELVSLFPTLAGLAGLQVPPRCPVPSFHVELCREGKNLLKHFRFRDLEEDPYLPGNPRELIAYSQYPRPSDIPQWNSDKPSLKDIKIMGYSIRTIDYRYTVWVGFNPDEFLANFSDIHAGELYFVDSDPLQDHNMYNDSQGGDLFQLLMP
notes: Fab fragment of an IgG1 antibody to the human insulin receptor, fused to iduronate-2-sulfatase; also called rIDS-FAB-HI; rHI-FAB-IDS
Regarding B1, in assay [4], the concentration giving a half-maximal response (EC50) is greater than 0.8 µg/mL and the “Receptor binding, %” value was found to be 0%. In assay [5], this molecule displayed an EC50 of 0.0243 µg/mL. Moreover, the “Receptor binding from antibody 83-14 mAb, %” value in assay [6] amounted to 136%.

B2: HIR-FAB-IDS (SEQ ID NO: 2 and SEQ ID NO: 5) (Fab)
light: B1 light
heavy: QVQLQQSGPELVKPGALVKISCKASGYTFTNYDIHWVKQRPGQGLEWIGWIYPGDGSTKYNEKFKGKATLTADKSSSTAYMHLSSLTSEKSAVYFCAREWAYWGQGTLVTVSAASTKGPSVFPLAPSSKSTSGGTAALGCLVKDYFPEPVTVSWNSGALTSGVHTFPAVLQSSGLYSLSSVVTVPSSSLGTQTYICNVNHKPSNTKVDKKVEPKSCDKTHGGGGSGGGGSGGGGSSETQANSTTDALNVLLIIVDDLRPSLGCYGDKLVRSPNIDQLASHSLLFQNAFAQQAVCAPSRVSFLTGRRPDTTRLYDFNSYWRVHAGNFSTIPQYFKENGYVTMSVGKVFHPGISSNHTDDSPYSWSFPPYHPSSEKYENTKTCRGPDGELHANLLCPVDVLDVPEGTLPDKQSTEQAIQLLEKMKTSASPFFLAVGYHKPHIPFRYPKEFQKLYPLENITLAPDPEVPDGLPPVAYNPWMDIRQREDVQALNISVPYGPIPVDFQRKIRQSYFASVSYLDTQVGRLLSALDDLQLANSTIIAFTSDHGWALGEHGEWAKYSNFDVATHVPLIFYVPGRTASLPEAGEKLFPYLDPFDSASQLMEPGRQSMDLVELVSLFPTLAGLAGLQVPPRCPVPSFHVELCREGKNLLKHFRFRDLEEDPYLPGNPRELIAYSQYPRPSDIPQWNSDKPSLKDIKIMGYSIRTIDYRYTVWVGFNPDEFLANFSDIHAGELYFVDSDPLQDHNMYNDSQGGDLFQLLMP
notes: Variant of the Fab-iduronate-2-sulfatase fusion
B2: in assay [4], the EC50 was greater than 0.8 µg/mL and the “Receptor binding, %” value stood at 0%. Besides, in assay [5], the EC50 is 0.0503 µg/mL. For the same molecule, in assay [6], the “Receptor binding from antibody 83-14 mAb, %” value was determined as 66%.

B3: HIR-FAB-IDS (SEQ ID NO: 8 and SEQ ID NO: 12) (Fab)
light: DIQMTQSPSSLSASVGDRVTITCRASQDIGGNLYWYQQKPGKAPKLLIYATSSLDSGVPSRFSGSGSGTDFTLTISSLQPEDVATYYCLQYSSSPWTFGQGTKVEIKRTVAAPSVFIFPPSDEQLKSGTASVVCLLNNFYPREAKVQWKVDNALQSGNSQESVTEQDSKDSTYSLSSTLTLSKADYEKHKVYACEVTHQGLSSPVTKSFNRGEC
heavy: EVQLVESGGGLVQPGRSLRLSCAASGFTFTNYDIHWVRQAPGKGLEWVSWIYPGDGSTKYNEKFKGRFTISRDNAKNSLYLQMNSLRAEDTAVYYCAKEWAYWGQGTLVTVSSASTKGPSVFPLAPSSKSTSGGTAALGCLVKDYFPEPVTVSWNSGALTSGVHTFPAVLQSSGLYSLSSVVTVPSSSLGTQTYICNVNHKPSNTKVDKKVEPKSCDKTHLSSSETQANSTTDALNVLLIIVDDLRPSLGCYGDKLVRSPNIDQLASHSLLFQNAFAQQAVCAPSRVSFLTGRRPDTTRLYDFNSYWRVHAGNFSTIPQYFKENGYVTMSVGKVFHPGISSNHTDDSPYSWSFPPYHPSSEKYENTKTCRGPDGELHANLLCPVDVLDVPEGTLPDKQSTEQAIQLLEKMKTSASPFFLAVGYHKPHIPFRYPKEFQKLYPLENITLAPDPEVPDGLPPVAYNPWMDIRQREDVQALNISVPYGPIPVDFQRKIRQSYFASVSYLDTQVGRLLSALDDLQLANSTIIAFTSDHGWALGEHGEWAKYSNFDVATHVPLIFYVPGRTASLPEAGEKLFPYLDPFDSASQLMEPGRQSMDLVELVSLFPTLAGLAGLQVPPRCPVPSFHVELCREGKNLLKHFRFRDLEEDPYLPGNPRELIAYSQYPRPSDIPQWNSDKPSLKDIKIMGYSIRTIDYRYTVWVGFNPDEFLANFSDIHAGELYFVDSDPLQDHNMYNDSQGGDLFQLLMP
notes: as for B2
For B3, in assay [4], the concentration for a half-maximal effect (EC50) was greater than 0.8 µg/mL and the “Receptor binding, %” value was 0%. Also, in assay [5], the EC50 came to 0.121 µg/mL. Also, in assay [6], the “Receptor binding from antibody 83-14 mAb, %” value was determined as 27%.

B4: HIR-FAB-IDS (SEQ ID NO: 9 and SEQ ID NO: 13) (Fab)
light: EIVLTQSPDFQSVTPKEKVTITCRASQDIGGNLYWYQQKPDQSPKLLIKATSSLDSGVPSRFSGSGSGTDFTLTINSLEAEDAAAYYCLQYSSSPWTFGPGTKVDIKRTVAAPSVFIFPPSDEQLKSGTASVVCLLNNFYPREAKVQWKVDNALQSGNSQESVTEQDSKDSTYSLSSTLTLSKADYEKHKVYACEVTHQGLSSPVTKSFNRGEC
heavy: B3 heavy with E1Q, L11V, T30S, S49A, A75S, S78T, S85G, K98R, K210R
notes: as for B2
Consider B4, for which the 50% effective concentration (EC50) in assay [4] is greater than 0.8 µg/mL; in assay [5], 0.0604 µg/mL. Besides, the “Receptor binding, %” value in assay [4] is 0%. Besides, the “Receptor binding from antibody 83-14 mAb, %” value in assay [6] worked out at 55%.

B5: HIR-FAB-IDS (SEQ ID NO: 10 and SEQ ID NO: 14) (Fab)
light: B3 light with M4L, L46V, V83F
heavy: EVQLVESGGGLVQPGGSLRLSCAASGYDFTNYDIHWVRQAPGKGLEWVGWIYPGDGSTKYNEKFKGRFTFSLDTSKSTAYLQMNSLRAEDTAVYYCAKEWAYWGQGTLVTVSSASTKGPSVFPLAPSSKSTSGGTAALGCLVKDYFPEPVTVSWNSGALTSGVHTFPAVLQSSGLYSLSSVVTVPSSSLGTQTYICNVNHKPSNTKVDKKVEPKSCDKTHLSSSETQANSTTDALNVLLIIVDDLRPSLGCYGDKLVRSPNIDQLASHSLLFQNAFAQQAVCAPSRVSFLTGRRPDTTRLYDFNSYWRVHAGNFSTIPQYFKENGYVTMSVGKVFHPGISSNHTDDSPYSWSFPPYHPSSEKYENTKTCRGPDGELHANLLCPVDVLDVPEGTLPDKQSTEQAIQLLEKMKTSASPFFLAVGYHKPHIPFRYPKEFQKLYPLENITLAPDPEVPDGLPPVAYNPWMDIRQREDVQALNISVPYGPIPVDFQRKIRQSYFASVSYLDTQVGRLLSALDDLQLANSTIIAFTSDHGWALGEHGEWAKYSNFDVATHVPLIFYVPGRTASLPEAGEKLFPYLDPFDSASQLMEPGRQSMDLVELVSLFPTLAGLAGLQVPPRCPVPSFHVELCREGKNLLKHFRFRDLEEDPYLPGNPRELIAYSQYPRPSDIPQWNSDKPSLKDIKIMGYSIRTIDYRYTVWVGFNPDEFLANFSDIHAGELYFVDSDPLQDHNMYNDSQGGDLFQLLMP
notes: as for B2
Regarding B5, in assay [4], the half-maximal effective concentration (EC50) is greater than 0.8 µg/mL and the “Receptor binding, %” value turned out to be 0%. This molecule showed a concentration for a half-maximal effect (EC50) in assay [5] of 0.0351 µg/mL. In addition, the “Receptor binding from antibody 83-14 mAb, %” value in assay [6] came out at 94%.

B6: HIR-FAB-IDS (SEQ ID NO: 11 and SEQ ID NO: 15) (Fab)
light: EIVLTQSPATLSLSPGERATLSCRASQDIGGNLYWYQQKPGQAPRLLIYATSSLDSGIPARFSGSGSGTDFTLTISSLEPEDFAVYYCLQYSSSPWTFGQGTRLEIKRTVAAPSVFIFPPSDEQLKSGTASVVCLLNNFYPREAKVQWKVDNALQSGNSQESVTEQDSKDSTYSLSSTLTLSKADYEKHKVYACEVTHQGLSSPVTKSFNRGEC
heavy: B3 heavy with T30N, N77K, V93L, L108T, S127G, K129S, S130K, T131S, S132T, G133S
notes: as for B2
For the molecule B6, in assay [4], the EC50 is greater than 0.8 µg/mL and the “Receptor binding, %” value amounted to 0%. Also, the EC50 in assay [5] worked out at 0.156 µg/mL. Moreover, the “Receptor binding from antibody 83-14 mAb, %” value in assay [6] came out at 21%.
